Assay results from patent US9290794B2, “Mutant protease biosensors with enhanced detection characteristics” (PROMEGA CORPORATION, priority 2010, dated 2016).

Tests used:
Type in all cases: biochemical
caspase-3 [1] = experiment: CBS-HT (cell-free expressed) immobilized to HaloTag ligand microtiter plate, caspase-3 cleavage
Description: For immobilization to a plate (FIG. 18B), a microtiter plate was prepared containing HaloTag® ligand for immobilizing the CBS-HT fusion protein. Briefly, bicarbonate buffer pH 8.5 (100 μL), containing amine-PEG 2000-Cl alkane HaloTag® ligand (0.25 mM (final concentration; PBI 3961 and methoxy-PEG-NH2 (0.75 mM final concentration) were added to wells of a NHS microtiter plate and incubated for 1 hr at room temperature. The wells were then washed 3 times with PBS containing 0.05% Tween-20. After washing, 50 mM ethanolamine was added, and the plates were incubated for 30 min at room temperature and washed again 3 times with PBS containing 0.05% Tween-20. The plate was then stored at 4° C. with PBS containing 0.05% Tween-20 in each well. For the assay, the wells were washed 3 times with 200 μl HPTB. 50 μl CBS-HT cell-free expression reaction (Example XI) was added to the wells, and incubated overnight at 4° C. Following incubation, the plate was washed 3 times with 200 μl PBSI (1×PBS with 0.05% IGEPAL). 100 μL E. coli lysate containing caspase-3 or C(3) lysis buffer (described above) were added and the plate was incubated for 60 min with mixing at room temperature. The wells were then washed with 100 μl PBSI. 100 μL HEPES pH 7.5 and 100 μl Bright-Glo Assay Reagent were added and luminescence was detected as previously described (Table 9).

caspase-3 [2] = experiment: CBS-HT (cell-free expressed) immobilized to HaloLink resin, caspase-3 cleavage reaction
Description: For immobilization to a resin (FIG. 18A), HaloLink resin (25% slurry, Promega Cat. No. G1912) was first equilibrated with HTPB Buffer (50 mM HEPES (pH 7.5), 150 mM NaCl, 1 mM DTT and 0.5 mM EDTA). Resin from one volume of slurry was collected by centrifugation (5 min at 1000×g), and the storage buffer was removed. The resin pellet was re-suspended in 2 volumes of HTPB and mixed. This process was repeated for a total of three HTPB washes. 100 μL of the CBS-HT fusion from Example XI (cell free expression reaction) was mixed with 25 μL washed resin (50% slurry in HTPB) and incubated overnight with mixing at 4° C. Incubation was continued at ambient temperature for 2 hrs. After incubation, the resin was washed to remove un-bound CBS. The resin was split into two 50 μl aliquots, and each aliquot was washed 3 times with HTPB. The final resin pellets were re-suspended in 50 μL HTPB.
For the CBS caspase-3 cleavage reaction, 20 μl of the washed resin was mixed with 20 μL of either E. coli lysate containing caspase-3 or C(3) Lysis Buffer (as in Example XI) and incubated for 30 min at ambient temperature. 60 μl HEPES pH 7.5 was added to the samples, followed by the addition of 100 μl Bright-Glo Assay Reagent. Luminescence was detected as previously described (Table 8 and FIG. 19).

caspase-3 [3] = experiment: Cell-free (wheat germ) expressed CBS-HT, caspase-3 cleavage reaction, luminescence; settings: WG(HY), MIN. 5
Description: The CBS variant 1A5 was cloned into the vector pFN19K HaloTag® (Promega Cat. No. G1841) to generate a CBS-HaloTag® (CBS-HT) fusion protein (SEQ ID NOs:71 and 72). 20 μl (8 μg) of the CBS-HT vector was added to 30 μl TnT® SP6 High-Yield Wheat Germ Expression System (Promega Cat. No. L3261) and incubated at 25° C. for 90 min.
For the CBS-HT caspase-3 cleavage reaction, one volume of the expression reaction was incubated with an equal volume of either an E. coli lysate containing caspase-3 or C(3) Lysis Buffer (0.8× FastBreak (Promega Cat. No. V857A), 10 mM DTT, 0.1% CHAPS, 0.8 mg/mL Lysozyme, 3 U/μL RQ1 DNase (Promega Cat. No. M610A)) and incubated for 60 min at room temperature. The E. coli lysate containing caspase-3 was prepared from KRX cells overexpressing recombinant caspase-3. Briefly, KRX cells were transformed with pTS1k:caspase-3(T/S). A starter culture (50 mL, LB Broth) was inoculated from a single colony and grown for 17-22 hrs at 37° C. with shaking (275 rpm). The starter culture was diluted (1:50) into fresh media and growth was continued for an additional 3 hrs. The incubation temperature was then lowered to 25° C. and, after 15 min, expression of caspase-3 was initiated by addition of rhamnose (0.2% final concentration). After 2 hr, cells were collected by centrifugation, re-suspended in 50 mL C(3) Lysis Buffer and incubated at ambient temperature (i.e. 22-24° C.) for 10 min. The lysate was clarified by centrifugation (20,000×g for 20 min at 4° C.) and used as the Caspase-3 source.
Cleavage of CBS-HT by Caspase-3 was detected in two different ways: by SDS-PAGE analysis and luminescence detection. […] After electrophoresis, CA-TAM labeled species were detected by fluorescent imaging (ex:532, Em:580; FIG. 17). For detection via luminescence, 40 μL of the cleavage reaction samples were added to 60 μL buffer (50 mM HEPES (pH 7.5) and 100 μL Bright-Glo assay reagent. Luminescence was detected as previously described (Table 7).

B1: CBS-HT: CBS variant 1A5 fused to HaloTag, expressed in wheat germ extract (SEQ ID NOs:71 and 72) (protein)
chain: MAEIGTGFPFDPHYVEVLGERMHYVDVGPRDGTPVLFLHGNPTSSYVWRNIIPHVAPTHRCIAPDLIGMGKSDKPDLGYFFDDHVRFMDAFIEALGLEEVVLVIHDWGSALGFHWAKRNPERVKGIAFMEFIRPIPTWDEWPEFARETFQAFRTTDVGRKLIIDQNVFIEGTLPMGVVRPLTEVEMDHYREPFLNPVDREPLWRFPNELPIAGEPANIVALVEEYMDWLHQSPVPKLLFWGTPGVLIPPAEAARLAKSLPNCKAVDIGPGLNLLQEDNPDLIGSEIARWLSTLEISGEPTTEDLYFQSDNAIAMPGSTGKIVPLHAVKVVDPTTGKILGPNEPGELYFKGPMIMKGYYNNEEATKAIIDNDGWLRSGDIAYYDNDGHFYIVDRLKSLIKYKGYQVAPAEIEGILLQHPYIVDAGVTGIPDEAAGELPAAGVVVQTGKYLNEQIVQDYVASQVSIAKWLRGGVKFLDEIPKGSTGKIDRKVLRQMLEKHTNGSDEVDGSLKNILYGPEPFYPLEDGTAGEQMFDALSRYAAIPGCIALTNAHTKENVLYEEFLKLSCRLAESFKKYGLKQNDTIAVCSENSLQFFLPVIASLYLGIIVAPVNDKYIERELIHSLGIVKPRIVFCSKNTFQKVLNVKSKLKSIETIIILDLNEDLGGYQCLNNFISQNSDSNLDVKKFKPYSFNRDDQVASIMFSSGTTGLPKGVMLTHKNIVARFSIAKDPTFGNAINPTSAILTVIPFHHGFGMMTTLGYFTCGFRVVLMHTFEEKLFLQSLQDYKVESTLLVPTLMAFLAKSALVEKYDLSHLKEIASGGAPLSKEIGEMVKKRFKLNFVRQGYGLTETTSAVLITPKGV
- BASAL luminescence (caspase-3 [1]; MIN. 0): 66
- INDUCED luminescence (caspase-3 [1]; MIN. 0): 1,226
- RESPONSE (caspase-3 [1]; MIN. 0): 19
- BASAL luminescence (caspase-3 [1]; MIN. 1): 16
- INDUCED luminescence (caspase-3 [1]; MIN. 1): 1,636
- RESPONSE (caspase-3 [1]; MIN. 1): 102
- BASAL luminescence (caspase-3 [1]; MIN. 2): 106
- INDUCED luminescence (caspase-3 [1]; MIN. 2): 2,267
- RESPONSE (caspase-3 [1]; MIN. 2): 21
- BASAL luminescence (caspase-3 [1]; MIN. 3): 66
- INDUCED luminescence (caspase-3 [1]; MIN. 3): 2,147
- RESPONSE (caspase-3 [1]; MIN. 3): 33
- BASAL luminescence (caspase-3 [1]; MIN. 4): 126
- INDUCED luminescence (caspase-3 [1]; MIN. 4): 2,297
- RESPONSE (caspase-3 [1]; MIN. 4): 18
- BASAL luminescence (caspase-3 [1]; MIN. 5): 126
- INDUCED luminescence (caspase-3 [1]; MIN. 5): 2,857
- RESPONSE (caspase-3 [1]; MIN. 5): 23
- BASAL luminescence (caspase-3 [1]; MIN. 6): 76
- INDUCED luminescence (caspase-3 [1]; MIN. 6): 3,107
- RESPONSE (caspase-3 [1]; MIN. 6): 41
- BASAL luminescence (caspase-3 [1]; MIN. 7): 56
- INDUCED luminescence (caspase-3 [1]; MIN. 7): 3,377
- RESPONSE (caspase-3 [1]; MIN. 7): 60
- BASAL luminescence (caspase-3 [1]; MIN. 8): 136
- INDUCED luminescence (caspase-3 [1]; MIN. 8): 3,037
- RESPONSE (caspase-3 [1]; MIN. 8): 22
- BASAL luminescence (caspase-3 [1]; MIN. 9): 116
- INDUCED luminescence (caspase-3 [1]; MIN. 9): 3,667
- RESPONSE (caspase-3 [1]; MIN. 9): 32
- BASAL luminescence (caspase-3 [2]; sample AS): 29,553
- INDUCED luminescence (caspase-3 [2]; sample AS): 5,162,108
- RESPONSE (caspase-3 [2]; sample AS): 175
- BASAL luminescence (caspase-3 [2]; sample FT): 3,170
- INDUCED luminescence (caspase-3 [2]; sample FT): 232,117
- RESPONSE (caspase-3 [2]; sample FT): 73
- BASAL luminescence (caspase-3 [2]; sample RESIN): 11,219
- INDUCED luminescence (caspase-3 [2]; sample RESIN): 1,635,259
- RESPONSE (caspase-3 [2]; sample RESIN): 146
- RESPONSE (caspase-3 [3]): 441
- BASAL luminescence (caspase-3 [3]; C(3) Lysis Buffer): 10,494
- INDUCED luminescence (caspase-3 [3]; E. coli lysate containing caspase-3): 4,626,173
